Assays:
[1] = target: cyclin D1 with the CDK6n-CDK4c chimera (UniProt P24385); assay: recruitment to a CDK tethered at the inner nuclear membrane, with FRAP; as a4 but with 6 µM palbociclib overnight and throughout, or 6 µM palbociclib, ribociclib or abemaciclib added acutely about 4-5 min after photobleaching
[2] = target: CDK2-mTurquoise-Δ50 lamin A (UniProt P24941); assay: recruitment to a CDK tethered at the inner nuclear membrane, with FRAP; live RPE-1 cells with mVenus-cyclin and CDK-mTurquoise-Δ50 lamin A, p21 and p27 depleted by siRNA co-knockdown; recovery of mVenus after photobleaching; 37 °C

mRuby3-p21, sequence (P38936 whole entry): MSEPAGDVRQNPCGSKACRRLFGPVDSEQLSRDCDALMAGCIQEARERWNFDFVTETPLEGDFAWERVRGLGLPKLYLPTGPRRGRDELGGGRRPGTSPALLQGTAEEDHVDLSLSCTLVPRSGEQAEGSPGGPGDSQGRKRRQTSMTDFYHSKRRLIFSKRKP
mVenus-cyclin E1, sequence (P24864 whole entry): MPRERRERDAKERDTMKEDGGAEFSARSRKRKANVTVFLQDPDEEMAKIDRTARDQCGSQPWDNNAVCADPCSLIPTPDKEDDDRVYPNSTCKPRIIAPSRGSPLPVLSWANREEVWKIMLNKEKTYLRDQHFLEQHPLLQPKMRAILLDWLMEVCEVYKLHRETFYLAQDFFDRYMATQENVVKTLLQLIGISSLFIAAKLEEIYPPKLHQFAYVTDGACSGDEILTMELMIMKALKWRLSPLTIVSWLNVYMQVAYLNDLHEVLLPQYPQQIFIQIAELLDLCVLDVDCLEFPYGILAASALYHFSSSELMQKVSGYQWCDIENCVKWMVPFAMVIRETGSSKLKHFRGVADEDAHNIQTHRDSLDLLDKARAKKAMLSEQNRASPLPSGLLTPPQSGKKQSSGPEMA
cyclin D1 with the CDK6n-CDK4c chimera, sequence (P24385 whole entry, looked up, stated change not applied): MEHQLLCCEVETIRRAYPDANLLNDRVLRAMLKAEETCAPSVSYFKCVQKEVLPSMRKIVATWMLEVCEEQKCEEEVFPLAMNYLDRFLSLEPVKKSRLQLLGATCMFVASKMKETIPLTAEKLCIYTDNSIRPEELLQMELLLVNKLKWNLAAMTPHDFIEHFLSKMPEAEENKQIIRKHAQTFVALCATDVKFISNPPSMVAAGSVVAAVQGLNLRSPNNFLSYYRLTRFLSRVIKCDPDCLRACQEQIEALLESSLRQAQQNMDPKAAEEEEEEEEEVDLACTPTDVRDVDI

fold decrease in fold change of the off-rate with palbociclib against DMSO [1] [fold] | dissociation t-half [2] [min] | Substance
10 | – | mRuby3-p21 (from UniProt P38936 1-164) (natural protein)
– | 3 | mVenus-cyclin E1 (from UniProt P24864 1-410) (natural protein; other documents disagree on this pair)
